For 1 substance, stoichiometry N results are on record in paper PMC4600444.

What is called stoichiometry N is the number of molecules, sites or subunits per partner or assembly.

The assay concerns the target Xis2d protein of CTnDOT (Bacteroides spp. (conjugative transposon CTnDOT)). Briefly: SEC. For orientation: SEC sorts molecules by how far they enter the pores of the column.

“Xis2d protein of CTnDOT (natural protein)” showed a stoichiometry N of 2.
